Consider 18 sequences from the DeepSol protein solubility set.

The nature of this data set: soluble on expression in E. coli; label from the status in PepcDB or PDB records.
For “MGSDKIHHHHHHASNPVLRISDGWVADTIAPALIHYRFAGYDSISQAHQNVDVLEVDLTSPSYDIQLVYEEHGDSLSSVAERNNAAAAINGTYEAEASFIKIGGRLLAQNRLDSTHIRYWKHEGAFLFDDDNKNIDIRFASDSTFLSHPAANILSGAPMLIDNNDPVGLNFTGNVEGMDLNKLDYEDFRRHQGVRHPRTAVALTEHKKLLLITVDGRSTQAAGMSANELTRFLLTYFCPQSALNLDGGGSTTMWIASSEQRVGGVVNHPTDNKKFDHAGQRRVTSFIVIKSSENHE”, the “soluble on expression in E. coli” value is “not soluble”.

For “MGSDKIHHHHHHCGGGTERKGLEALVAEYKKLNPDVDFEIIDISYSSYMQKISLAVMSGDVPDLMTITYPFAPELRKYLIDLDPYIEKYLGITPKEYEDAFYNVVKPYIKDENGKIKYVPLHFTVQGLWVNVDYFEKAGIPFPPLGGREEPWTWEEFVEVLRKVKEANNLPYAMSMQYSAERIANYLAIRGAKVLDENLNLVLDKDPKAIKALEDFVNLFKENLCVPAEWVSGQSADNDFYGGVTAVYWAGSWETLDALSVEGKRFLPAYLPKDEYCFGVEGGRFFGAFKTGDKKKEEEAAKFALWAGWKGKGYDIYLKTTLHLSAYKDHKVDYGVPIMESVQKVFGYLAANAPEWIVTVRANPVWSRLYDPLRKQISLVIAGQQDLQTALKNIRAEYERIVEELGIK”, the “soluble on expression in E. coli” value is “not soluble”.

“MGSDKIHHHHHHCSTDFLDRNPLDKPSNEAFWRTEKDAMAAATGCYNGWFSMDEVIYADCASDNAYNPFTWEGWAVQAAGTATPTDPGYSYMGYGNMVRYNNFLENIHRPEMNEDLRKRLIAEVRFLRAWDYFQKVAHYGDVPLVTSVLEIKNANLPRTEKAKVVEFILKELKEIAPQLPESYSGSDVGRITRGAALTLKARLELFEHQYDDCMATCSEVMGLGYELFLDYKGLFKIANENNSEVILDVQYVESLYGNWVLGVLPPASVGGWCSINPTQSLVDAFECEDGKTIEESEVYDPKEPYLHRDPRLAVTVLAPGNLYEGKRYDPIDVKDPNGDYYAPYGRSKTGYLVRKYVDDLSDYADMWDCGMNAIVMRYAEVLLMYAECKIELNQIDNSVYDILDDIRTRAKMPVVDRTRYTGQEKLRELLRRERRVELAMEGLRWFDICRWKIGEQVLNGKVYGCLLGTVDPVTGALSLTNERIFVENRKFDPAKHYLWPIPQTVIDATPAIVQNPHY”: the “soluble on expression in E. coli” value was “not soluble”.

Consider “MGSDKIHHHHHHDSFKTKSGKELTITFIKHGSLMLTYDNHSIQVDPVSEYADYTTFPKADIILITHEHGDHLDPKAIQAVEKSDTEIIANENSQKKLGKGKVLKNGDTDTSISYMKIEAVPAYNTTPGRDKYHPRHRDNGYILTFDGLRVYIAGDTEDIPEMKDLKDIDIAFLPVNQPYTMTVSQAAKAARMFSPKILYPYHYGDTKIGELKDALKDSGIDVRIRELQ”, for which the “soluble on expression in E. coli” value is on record as “not soluble”.

As for “MGSDKIHHHHHHDSKQSQDLIVKTAQAVSASGIKTTEFPFIAQPFRTSELSFRVGGPIDRLDVYAGNHYKQGSIIAEIDPRDFHIRKERAEAIYHQAKAEFERIEKLYEKNNVSASTYEKTKADYTTAKTAFDTASNELGDTRLTAPFDGYVGEVYIEKYQDVKPAQPVISFIDINRLKIEIYVTQNIAFASHPTDSVRIYFDAQPDKYYKAQIVEVSKGTTRNNLSYLLTAVLPNKEGKLLAGMSGKAIFDAPGTTDLTGVSIPQTALCYRPSEGEYVWVIDTNTRQVNRRTVKKGNLLPGGYVTITEGLRASETVATSGLRFLSDGMKVEISTKTNSL”, the “soluble on expression in E. coli” value is reported as “not soluble”.

With “MGSDKIHHHHHHDSLTESSSNTFWQTPDDALMALASCYDALQSNQLYNSDQYSLGPLYMDCISDNGGHFNWSGWMEGYDMAMGIHTPSSSIIGSYWKDCYEVISRCNVLIANIDRVDMDASQKAIYQAEAKTIRALMYINLTMTYQDVPFLTAPLTIDEAECEKTDRAAIVAHVMTDLQDAAEVLPQNASSRGHITKGAALSLLGRVALYNEKWDDAIAAYKQVQGLGYSLDPSYAKLFTQSGETSPEIIFAVRYEGPGMSEGAAFNAHWNTPLEAMNGTIDLADAYYCKDGKPTTDTKIAELNGGGGLDVSKPNPAHFENRDPRLYSTLFVPGMLWNGKGGIDTSASNPYANVYGGAAASLSTVYVYKYFDPTDTSNSWDNGQDFYVVRYAEVLLSLAEAMVQKGGYVYSDVTALVNEVRQRADVNMPTVEEVEGTSLSKDELLEVIKHERRVELAFEGLRLFDLYRWKELDKAVANIENERTMYGLAYEARKFNGERDYVWPLPTAELDTNKKLVQHDLWK”, the “soluble on expression in E. coli” value is “not soluble”.

For the sequence “MGSDKIHHHHHHEDEKSPVMELQKASAFEPFSQSDFTFNDENAAAEFPEIKWTAADYGVKAVVNYDVTLTNDANAKTVLLGETGTTSLKFTNGQMNTMMAKVGAYPGQTYNFTITLTSKAYDMTADPASNSITFKATLFDPNAVDWKFAYVAVGYPDWDYTNAYLLGDPDGDGVYQGYANFDADGVSYAIIDGSDLTKILAKDQTAAKKGFYGIKVDAEGKVEQTEPLVWGVVGDATSGGWDKDTQMDYDATTRLWTVTTSLLDKEFKFRSNNNWDSDNYGAVSGKESELEGELVAGPNNFKVLKASPYVITMNLTNAGKYSYSMVETTIELSSAEMALPGSYQGWDATKDDCYKVQSAARDFIYTGTFYFDADTKFKFWDAGVWIGMMGPISWDEAKNIGTFVLMPSDGDNIKIETAGYYRVGADMKKLTASLTKTGWEIIGDATPGGWDKGTVMNYDPATKLWSVDVTLVAGEMKFRWDGAWTVNLGGSLGALTQDGANMKVTAGAYTIVLNPDAKTATMTKK”, the “soluble on expression in E. coli” value was “not soluble”.

As to “MGSDKIHHHHHHENEYITNIDRTFGTRISYEISKRYGELGLEGSRSITIGLKGHAGQSFCAFLAKGVSVTLEGDANDYVGKCLSGGKIVIFPPKAASYKSEENSVIGNVALYGATSGDCWFRGVAGERFAVRNSGANVIVEAVGDHGCEYMTGGRVIVLGSIGRNFAAAMSGGIAYLFAQEDNFSRLINAATVDLDDASTEDLIFVKAK”, the “soluble on expression in E. coli” value is on record as “not soluble”.

As to “MGSDKIHHHHHHENLYFQGMIESIQELLQKEAQAVLNIPVTDAYEKAVELIVEQIHRKKGKLVTSGMGKAGQIAMNIATTFCSTGIPSVFLHPSEAQHGDLGILQENDLLLLISNSGKTREIVELTQLAHNLNPGLKFIVITGNPDSPLASESDVCLSTGHPAEVCTLGMTPTTSTTVMTVIGDILVVQTMKRTEFTIEEYSKRHHGGYLGEKSRKLCVK”, the “soluble on expression in E. coli” value is recorded as “soluble”.

With “MGSDKIHHHHHHENLYFQGMTKAIQSSVQVGELATGQALTVPIYSFMGSENSAPSVYIQANVHGAEVQGNAVIYQLMTLLEGYQVLGDITLAPLANPLGINQKSGEFTLGRFDPITGVNWNREYFDHNVDIQNWYAEHQHLTNSELFCAYRSMLVETCQARLTHSFGISTGHRLAVNLQAMAHQADIVLDLHTGPKSCKHLYCPEYDIDAARFFSIPYTLIIPNSFGGAMDEATFCPWWQLTEYATSQGREFSVPVSAFTLELASQERIDLADALEDAKGILAYLSHRGVIAEKVNPASMERFGCYLKDYKKFHAPKAGLIEYCASVGEPLTAGKPLVNILRIDLYGSEQAYQAISLPMDCVPILHFASASVLQGTELYKVMTNVFPLQPS”, the “soluble on expression in E. coli” value is on record as “soluble”.

As for “MGSDKIHHHHHHENLYFQGMWEIYDAMINGIPEDFLVDELVCGTTHSVIRSGNGVGLGPNRPFETRMPMLTQNLLGLPLRVAAGCVKSWNYVEASIGLAAINAYYNNPQVAREHGVIFSDAKRVEDRMNDPFIMSQNEVKGKKVGVVGHFPHLESLLEPICDLSILEWSPEEGDYPLPASEFILPECDYVYITCASVVDKTLPRLLELSRNARRITLVGPGTPLAPVLFEHGLQELSGFMVKDNARAFRIVAGAEKVKIYSAGQKVTIKK”, the “soluble on expression in E. coli” value is reported as “soluble”.

For the sequence “MGSDKIHHHHHHETRECIYYNANWELERTNQSGLERCEGEQDKRLHCYASWRNSSGTIELVKKGCWLDDFNCYDRQECVATEENPQVYFCCCEGNFCNERFTHLPEPG”, the “soluble on expression in E. coli” value was “soluble”.

With “MGSDKIHHHHHHFKLLAADGDSLLVGARNAVYNLSLSTLSVNHKIDWKPPAEHIEECIMKGKSKTDCQNYIRVLARKSAGVSLVCGTHAFSPKCREYTVTEFGIRNTRQFDGQGISPYDPKHNSSALYVPGTNQLFVATVTDFVGNDALIYRKTIDETPSSKSAANIRTQSYDARVLNAPNFVATFAYKEHVYFWFREIASEAIDNNEEPQIYARVARVCKNDKGGARPANERWTSYLKARLNCSLPSGSSPFYFNELKAVSDPIDAGNNNHVVYTVFSTPDSDVRMSAVCKFSMKKIREEFDNGTFKHQNNAQSMWMAFNRNEVPKPRPGSCSPDSTKLPENTVSFILHHPLLHRPIPSVAAPLLVEGADRADLTQITVLPRVRAVGGHNYDILFIGTSDGKVLKVVEVDGNATVIQSATVFQRGVPIVNLLTTKES”, the “soluble on expression in E. coli” value is “not soluble”.

Consider “MGSDKIHHHHHHGKPLRKVDLLADIRPDVEEEVCDSDTIVLPPPVKPIFVDTCKTGITCIEDYSDSTMRGMKHFYEALSKVKTMKRPVRIAYFGDSFIEADIFTADLREMLQQEFGGCGVGYVPVTSSISGYRPTVRHTFGGWSSHSSNDSVGFDKMQQDISGHYFFPREGAYVQLKGQSKYASRLDTCEVSTFYFLNKGFAAVRSKVNNAAEGELHEEVGTGGVQAVSVRGRIGQVRWSVEQADSVTFYGVAMDGRQGISLDNFSVRGSSGLHLRSIPLHTLCDFQRLRPYDLIVVQYGLNVATERGVKYDGYKKGMLSVIEHLKTAFPETSILLVSVGDREYKNENGDLRTMPGVKNLIRYQQSIAADSHIAFWNMYEAMGGQGSIVDMIGQKMANLDYTHINFKGGKHLAGILFETLMYGKEQYERRKAYEEE”, for which the “soluble on expression in E. coli” value was “not soluble”.

On to “MGSDKIHHHHHHGNSSTGLSSGGSNVSLEVLKHRPLVEKYAKESDILEYVPILLAIIQVESGGTMEDVMQSSESAGFPPNSLSTEASIKQGCIYFASLVNRAKDIGCDQESIIQSYNYGGGYLDYVGKNGKKYSFALAESFSKEKSDGEKVTYSNPIAIKENGGWRYNYGNMFYVMLVKQYLTTTKFDDKTVQGIFDEAFKYEGTAYVFGGSSPATGFDCSGLTQWCYAKVGLQLPRVAQDQYDAMSHIELKDAKPGDLIFFHSTYDAGTYVTHVGIYAGDNRMFHAGDPVGWTNLTETYWQQHIIGAGRYKNRKGDR”, for which the “soluble on expression in E. coli” value is given as “not soluble”.

Take “MGSDKIHHHHHHGSITVILGPMFSGKTTELLRLHDRQIIAKRTCVLVKYAGDTRYDADLVATHSKMTGQGRTVKAHRLSEVQSQIFNDEVQVVSIDEGQFFEDLAETCEELAQRGKVVCVAALNGTFERKPFPQISLLLPYANEIKQVTAVCVECGSQANFSFRSTLDKKVEVIGGSDTYTALCRECY”: the “soluble on expression in E. coli” value is reported as “not soluble”.

Consider “MGSDKIHHHHHHHPHSFVDLKNKVLVDGTQLKGFQMEWTMDEIASAELIYEVKNNPDHQAAKKSITAEMEQTAIENHYFSYLYNAKDQPLKFSVKPSNTTFRIAGNRVVFYITFYLSKPYDLKNNAIRFYTYEPSYYMAMEYNNQQDLSINSSECKAKLTQPNVNNSLRLYASSLDKNQKPNMPDGEDNSLGAQFAQTVEVVCE”, for which the “soluble on expression in E. coli” value is “not soluble”.

As to “MGSDKIHHHHHHIASQENCSNKEDLTNRAEDFQSDFVKTMDIIKEHHVAYGNSNARNMLEVREQILQEKGFDDIYVQKKHAENCTAIAELPRVLAKIDELKNTGDEKTVLEYVSRGLLAGNVFDWGAKEVVKMMNSESGLTFQTAIDHVENRPWLFDGFDSFYKKHKEYKSVLIFVDNSGFDYILGIIPFARELLRNGSRVIICANTSPALNDLTYREMVELAPELKNADSDLAKFIDSNQMMFVQTGQESPCMDARRVHQDLNETVKKFNTDLVVIEGMGRALHTNFNVQFKCDSLKAAVIKTQWLADRLGGKMFSVVFKHE”, the “soluble on expression in E. coli” value is “not soluble”.
